# Experimental data reported in PMC9427776, “TTYH family members form tetrameric complexes at the cell membrane” (Communications Biology, 2022).
# Values joined by “and” are separate entries in the source; they are usually repeats but may differ in a detail not shown here. Equal values may be shown once.
# Assays:
# [1] = target: mTTYH3 ECD1-T4L-ECD2 (mouse | not stated) (UniProt Q6P5F7); assay: cross-linking; secreted protein from clarified insect cell medium, DSS at 0, 10, 50, 100, 200, 2000 uM; western blot
# [2] = target: the molecule itself; assay: single-molecule subunit counting (photobleaching steps of EGFP, TIRFM); EGFP fusions at low density in the plasma membrane of living Xenopus laevis oocytes, room temperature; bleaching steps counted by hand, fit to a binomial distribution (p = 0.7)
# [3] = target: the molecule itself; assay: SEC; FSEC of HEK 293 cells solubilised in 1% DDM, Superdex 200 Increase, 150 mM NaCl, 50 mM Tris-HCl pH 7.5, 1 mM DDM; EGFP fluorescence; also after 10 min at 20-80 C (FSEC-TS) or with 20 mM 2-ME, both of which shift the population toward dimers
# [4] = target: the molecule itself; assay: native gel or EMSA; Blue-Native PAGE of HEK 293 lysates in 0.05% (mTTYH1) or 0.1% (mTTYH3) DDM, 50 mM NaCl, 20 mM Tris-HCl pH 7.5; anti-FLAG western blot
# [5] = target: the molecule itself; assay: cross-linking; in situ on adherent HEK 293 cells with membrane-impermeable BS3 (0, 10, 50, 100, 200, 2000 uM), 1 h at room temperature; lysis in 1% DDM; SDS-PAGE and anti-FLAG western blot
# [6] = target: the molecule itself; assay: SEC-MALS; purified mTTYH1-GFP-8xHis, 50 uL at 1.18 mg/mL, Superdex 200 Increase, 20 mM Tris pH 7.5, 150 mM NaCl, 0.3 mM DDM; protein conjugate analysis
molecule,measurement,setting,value
mTTYH3 ECD1-T4L-ECD2 (from UniProt Q6P5F7 107-209; Q6P5F7 260-386) (domain or fragment),stoichiometry N,[1],4
"EGFP fusion of KCNH1 (natural protein, UniProt O95259 1-989, looked up, KCNH1, voltage-gated K+ channel; Positive control of the subunit counting; also called EGFP-fused KCNH1; source: Xenopus laevis oocytes injected with 1 ng cRNA, at the plasma membrane) MTMAGGRRGLVAPQNTFLENIVRRSNDTNFVLGNAQIVDWPIVYSNDGFCKLSGYHRAEVMQKSSTCSFMYGELTDKDTIEKVRQTFENYEMNSFEILMYKKNRTPVWFFVKIAPIRNEQDKVVLFLCTFSDITAFKQPIEDDSCKGWGKFARLTRALTSSRGVLQQLAPSVQKGENVHKHSRLAEVLQLGSDILPQYKQEAPKTPPHIILHYCVFKTTWDWIILILTFYTAILVPYNVSFKTRQNNVAWLVVDSIVDVIFLVDIVLNFHTTFVGPAGEVISDPKLIRMNYLKTWFVIDLLSCLPYDVINAFENVDEVSAFMGDPGKIGFADQIPPPLEGRESQGISSLFSSLKVVRLLRLGRVARKLDHYIEYGAAVLVLLVCVFGLAAHWMACIWYSIGDYEIFDEDTKTIRNNSWLYQLAMDIGTPYQFNGSGSGKWEGGPSKNSVYISSLYFTMTSLTSVGFGNIAPSTDIEKIFAVAIMMIGSLLYATIFGNVTTIFQQMYANTNRYHEMLNSVRDFLKLYQVPKGLSERVMDYIVSTWSMSRGIDTEKVLQICPKDMRADICVHLNRKVFKEHPAFRLASDGCLRALAMEFQTVHCAPGDLIYHAGESVDSLCFVVSGSLEVIQDDEVVAILGKGDVFGDVFWKEATLAQSCANVRALTYCDLHVIKRDALQKVLEFYTAFSHSFSRNLILTYNLRKRIVFRKISDVKREEEERMKRKNEAPLILPPDHPVRRLFQRFRQQKEARLAAERGGRDLDDLDVEKGNVLTEHASANHSLVKASVVTVRESPATPVSFQAASTSGVPDHAKLQAPGSECLGPKGGGGDCAKRKSWARFKDACGKSEDWNKVSKAESMETLPERTKASGEATLKKTDSCDSGITKSDLRLDNVGEARSPQDRSPILAEVKHSFYPIPEQTLQATVLEVRHELKEDIKALNAKMTNIEKQLSEILRILTSRRSSQSPQELFEISRPQSPESERDIFGAS",stoichiometry N,[2],4
"mTTYH3-EGFP (HEK 293, pEGFP-N1) (natural protein, mouse, UniProt Q6P5F7 1-524, looked up, mouse Tweety homolog 3 (mTTYH3), intact protein; also called EGFP-fused mTTYH3; mTTYH3-GFP; source: HEK 293 cells, transiently transfected, detergent-solubilised lysate; not shown: EGFP, C-terminal, kept) MAGVSYAAPWWVSLLHRLPHFDLRWEATSSQFRPEDADYQQALLLLGATALACLALDLLFLLFYSFWLCCRRRKTDEHLDADCCCTAWCVIITTLVCSAGIAVGFYGNGETSDGIHRATYSLRHANRTVAGVQDRVWDTAAALNRTAEPNLQSLERQLAGRQEPLRAVQRLQTLLGTLLGYTAAIPFWRNPGVSLEVLAEQVDLYDWYRWLGYLGLLLLDVIICLLVLVGLIRSSKGILVGVCLLGVLALVISWGALGLELAVSVGSSDFCVDPDTFVTKMVEEHSVLSGDILQYYLACSPRATNPFQQKLSGSHKALVEMQDVVAELLRNVPREHPATKDPLLRVQEVLNGTEVNLQHLTALVDCRSLHLDYVQALTGFCYDGVEGLIYLALFSFVTALMFSSIVCSIPHTWQQKRGPDDDGEEETAPGPRQAHDSLYRVHMPSLYSCGSSYGSEASIPAAAHTVSNAPVTEYMSQNANFQNPRCENTPLIGRESPPPSYTSSMRAKYLATSQPRPDSSGSGH",stoichiometry N,[3],4 and 2
"mTTYH3-EGFP (Xenopus oocytes, pGH19) (natural protein, mouse, UniProt Q6P5F7 1-524, looked up, mouse Tweety homolog 3 (mTTYH3), intact protein; also called EGFP-fused mTTYH3; source: Xenopus laevis oocytes injected with about 1 ng cRNA, at the plasma membrane; not shown: EGFP, C-terminal, kept) MAGVSYAAPWWVSLLHRLPHFDLRWEATSSQFRPEDADYQQALLLLGATALACLALDLLFLLFYSFWLCCRRRKTDEHLDADCCCTAWCVIITTLVCSAGIAVGFYGNGETSDGIHRATYSLRHANRTVAGVQDRVWDTAAALNRTAEPNLQSLERQLAGRQEPLRAVQRLQTLLGTLLGYTAAIPFWRNPGVSLEVLAEQVDLYDWYRWLGYLGLLLLDVIICLLVLVGLIRSSKGILVGVCLLGVLALVISWGALGLELAVSVGSSDFCVDPDTFVTKMVEEHSVLSGDILQYYLACSPRATNPFQQKLSGSHKALVEMQDVVAELLRNVPREHPATKDPLLRVQEVLNGTEVNLQHLTALVDCRSLHLDYVQALTGFCYDGVEGLIYLALFSFVTALMFSSIVCSIPHTWQQKRGPDDDGEEETAPGPRQAHDSLYRVHMPSLYSCGSSYGSEASIPAAAHTVSNAPVTEYMSQNANFQNPRCENTPLIGRESPPPSYTSSMRAKYLATSQPRPDSSGSGH",stoichiometry N,[2],4
"FLAG-tagged mTTYH3 (natural protein, mouse, UniProt Q6P5F7 1-524, looked up, mouse Tweety homolog 3 (mTTYH3), intact protein; so the FLAG is probably C-terminal; also called mouse Tweety homolog 3; source: HEK 293 cells (HEK293T), transiently transfected; cross-linked on the cells or in DDM lysate) MAGVSYAAPWWVSLLHRLPHFDLRWEATSSQFRPEDADYQQALLLLGATALACLALDLLFLLFYSFWLCCRRRKTDEHLDADCCCTAWCVIITTLVCSAGIAVGFYGNGETSDGIHRATYSLRHANRTVAGVQDRVWDTAAALNRTAEPNLQSLERQLAGRQEPLRAVQRLQTLLGTLLGYTAAIPFWRNPGVSLEVLAEQVDLYDWYRWLGYLGLLLLDVIICLLVLVGLIRSSKGILVGVCLLGVLALVISWGALGLELAVSVGSSDFCVDPDTFVTKMVEEHSVLSGDILQYYLACSPRATNPFQQKLSGSHKALVEMQDVVAELLRNVPREHPATKDPLLRVQEVLNGTEVNLQHLTALVDCRSLHLDYVQALTGFCYDGVEGLIYLALFSFVTALMFSSIVCSIPHTWQQKRGPDDDGEEETAPGPRQAHDSLYRVHMPSLYSCGSSYGSEASIPAAAHTVSNAPVTEYMSQNANFQNPRCENTPLIGRESPPPSYTSSMRAKYLATSQPRPDSSGSGH",stoichiometry N,[4],2
same,stoichiometry N,[5],4
"FLAG-tagged mTTYH1 (natural protein, mouse, UniProt Q9D3A9 1-450, looked up, mouse Tweety homolog 1 (mTTYH1), intact protein; so the FLAG is probably C-terminal; also called mouse Tweety homolog 1; source: HEK 293 cells (HEK293T), transiently transfected; cross-linked on the cells or in DDM lysate) MGAPPGYRPSAWVHLLHQLPRADFQLRPVPSGFAPRDQEYQQALLLVAALAGLGLGLSLIFIAVYLIRFCCCRPPEPHGAKSPPPGGGCVTWSCIAALLVGCAGIGIGFYGNSETSDGVSQLSSALLHANHTLSTIDDVVLETVERLGEAVKTELTTLEEVLSVRMELVAATRGARRQAEAAAQYLQGLAFWQGVSLSPVQVAEDVTFVEEYRWLAYVLLLLLVLLVCLFTLLGLAKQSKWLVVVMTAMSLLVLVLSWGSMGLEAATAVGLSDFCSNPDTYVLNLTQEETGLSSDILSYYFLCNQAVSNPFQQRLTLSQRALASIHSQLQGLEREAIPQFSAAQKPLLSLEETLNVTERSFHQLVALLHCRSLHKDYGSALRGLCEDALEGLLFLMLFSLLSAGALATTLCSLPRAWALFPPSDDYDDTDDDDPFNPQESKRFVQWQSSI",stoichiometry N,[4],2
same,stoichiometry N,[5],4
"mTTYH1-EGFP (HEK 293, pEGFP-N1) (natural protein, mouse, UniProt Q9D3A9 1-450, looked up, mouse Tweety homolog 1 (mTTYH1), intact protein; also called EGFP-fused mTTYH1; source: HEK 293 cells, transiently transfected, detergent-solubilised lysate; not shown: EGFP, C-terminal, kept) MGAPPGYRPSAWVHLLHQLPRADFQLRPVPSGFAPRDQEYQQALLLVAALAGLGLGLSLIFIAVYLIRFCCCRPPEPHGAKSPPPGGGCVTWSCIAALLVGCAGIGIGFYGNSETSDGVSQLSSALLHANHTLSTIDDVVLETVERLGEAVKTELTTLEEVLSVRMELVAATRGARRQAEAAAQYLQGLAFWQGVSLSPVQVAEDVTFVEEYRWLAYVLLLLLVLLVCLFTLLGLAKQSKWLVVVMTAMSLLVLVLSWGSMGLEAATAVGLSDFCSNPDTYVLNLTQEETGLSSDILSYYFLCNQAVSNPFQQRLTLSQRALASIHSQLQGLEREAIPQFSAAQKPLLSLEETLNVTERSFHQLVALLHCRSLHKDYGSALRGLCEDALEGLLFLMLFSLLSAGALATTLCSLPRAWALFPPSDDYDDTDDDDPFNPQESKRFVQWQSSI",stoichiometry N,[3],4 and 2
"mTTYH1-GFP-8xHis (natural protein, mouse, UniProt Q9D3A9 1-450, looked up, N-glycosylated (HexNAc at Asn; sites not given), mouse Tweety homolog 1 (mTTYH1), intact protein; also called purified mTTYH1-GFP; intact mTTYH1-GFP; not shown: EGFP, C-terminal, kept; His8, C-terminal, kept) MGAPPGYRPSAWVHLLHQLPRADFQLRPVPSGFAPRDQEYQQALLLVAALAGLGLGLSLIFIAVYLIRFCCCRPPEPHGAKSPPPGGGCVTWSCIAALLVGCAGIGIGFYGNSETSDGVSQLSSALLHANHTLSTIDDVVLETVERLGEAVKTELTTLEEVLSVRMELVAATRGARRQAEAAAQYLQGLAFWQGVSLSPVQVAEDVTFVEEYRWLAYVLLLLLVLLVCLFTLLGLAKQSKWLVVVMTAMSLLVLVLSWGSMGLEAATAVGLSDFCSNPDTYVLNLTQEETGLSSDILSYYFLCNQAVSNPFQQRLTLSQRALASIHSQLQGLEREAIPQFSAAQKPLLSLEETLNVTERSFHQLVALLHCRSLHKDYGSALRGLCEDALEGLLFLMLFSLLSAGALATTLCSLPRAWALFPPSDDYDDTDDDDPFNPQESKRFVQWQSSI",stoichiometry N,[6],4 and 2
"mTTYH1-EGFP (Xenopus oocytes, pGH19) (natural protein, mouse, UniProt Q9D3A9 1-450, looked up, mouse Tweety homolog 1 (mTTYH1), intact protein; also called EGFP-fused mTTYH1; source: Xenopus laevis oocytes injected with about 1 ng cRNA, at the plasma membrane; not shown: EGFP, C-terminal, kept) MGAPPGYRPSAWVHLLHQLPRADFQLRPVPSGFAPRDQEYQQALLLVAALAGLGLGLSLIFIAVYLIRFCCCRPPEPHGAKSPPPGGGCVTWSCIAALLVGCAGIGIGFYGNSETSDGVSQLSSALLHANHTLSTIDDVVLETVERLGEAVKTELTTLEEVLSVRMELVAATRGARRQAEAAAQYLQGLAFWQGVSLSPVQVAEDVTFVEEYRWLAYVLLLLLVLLVCLFTLLGLAKQSKWLVVVMTAMSLLVLVLSWGSMGLEAATAVGLSDFCSNPDTYVLNLTQEETGLSSDILSYYFLCNQAVSNPFQQRLTLSQRALASIHSQLQGLEREAIPQFSAAQKPLLSLEETLNVTERSFHQLVALLHCRSLHKDYGSALRGLCEDALEGLLFLMLFSLLSAGALATTLCSLPRAWALFPPSDDYDDTDDDDPFNPQESKRFVQWQSSI",stoichiometry N,[2],4
